The data set addresses hybrid GFP construct containing the protease cleavage sequence SVPSGCG (SEQ ID NO:21) followed by histidine residues.

B1: Purified Bromelain (protein)
chain: AVPQSIDWRDYGAVTSVKNQNPCGACWAFAAIATVESIYKIKKGILEPLSEQQVLDCAKGYGCKGGWEFRAFEFIISNKGVASGAIYPYKAAKGTCKTDGVPNSAYITGYARVPRNNESSMMYAVSKQPITVAVDANANFQYYKSGVFNGPCGTSLNHAVTAIGYGQDSIIYPKKWGAKWGEAGYIRMARDVSSSSGICGIAIDPLYPTLEE
B1: the % GFP Released (60 minutes, 37° C.) is 98%; the Micrograms of GFP Released by Protease (overnight, IMAC beads) turned out to be 35 µg; the “averaged GFP signal (instrument signal times dilution factor, four readings)” value is “bromelain yielded a averaged (over four readings) GFP signal of 281,500”; the “fluorescence units of eluant diluted 20-fold” value was “fluorescence units of 400, 400, and 390, respectively”. Besides, the µg GFP Released by Protease (60 minutes, 37° C.) was 109 µg.

B2: Papain (protein)
chain: IPEYVDWRQKGAVTPVKNQGSCGSCWAFSAVVTIEGIIKIRTGNLNEYSEQELLDCDRRSYGCNGGYPWSALQLVAQYGIHYRNTYPYEGVQRYCRSREKGPYAAKTDGVRQVQPYNEGALLYSIANQPVSVVLEAAGKDFQLYRGGIFVGPCGNKVDHAVAAVGYGPNYILIKNSWGTGWGENGYIRIKRGTGNSYGVCGLYTSSFYPVKN
As for B2, the % GFP Released (60 minutes, 37° C.) was determined as 97%; the Micrograms of GFP Released by Protease (overnight, IMAC beads) is 244 µg; the “averaged GFP signal (instrument signal times dilution factor, four readings)” value is reported as “papain yielded an averaged (over four readings) GFP signal of 282,000”; the “fluorescence units of eluant diluted 20-fold” value was “fluorescence units of 400, 400, and 390, respectively”. The µg GFP Released by Protease (60 minutes, 37° C.) turned out to be 109 µg.

B3: Proteinase K (protein)
chain: AAQTNAPWGLARISSTSPGTSTYYYDESAGQGSCVYVIDTGIEASHPEFEGRAQMVKTYYYSSRDGNGHGTHCAGTVGSRTYGVAKKTQLFGVKVLDDNGSGQYSTIIAGMDFVASDKNNRNCPKGVVASLSLGGGYSSSVNSAAARLQSSGVMVAVAAGNNNADARNYSPASEPSVCTVGASDRYDRRSSFSNYGSVLDIFGPGTSILSTWIGGSTRSISGTSMATPHVAGLAAYLMTLGKTTAASACRYIADTANKGDLSNIPFGTVNLLAYNNYQA
For the protein B3, the Micrograms of GFP Released by Protease (overnight, IMAC beads) turned out to be 94 µg.

Source of the values: patent US20080241867.
